Measured values reported in patent publication US20110243899A1 (NATIONAL UNIVERSITY CORPORATION CHIBA UNIVERSITY, published 2011).
Values belong to the molecule of their own block, whether it stands above or below them.

Experiments:
[1] = target: Myc-tagged Frz8CRD (Frz8CRD-Myc), cysteine-rich domain of Frizzled 8 (Mus musculus (Mouse)) (UniProt Q61091); experiment: liquid-phase binding assay with immunoprecipitated Frz8CRD-Myc, Scatchard plot
[2] = target: T1, Myc-tagged LRP6N (LRP6N-Myc), extracellular portion of LRP6 (UniProt O75581 20-1370); experiment: radioligand saturation binding (Scatchard); Kd1, high-affinity site
T1 chain: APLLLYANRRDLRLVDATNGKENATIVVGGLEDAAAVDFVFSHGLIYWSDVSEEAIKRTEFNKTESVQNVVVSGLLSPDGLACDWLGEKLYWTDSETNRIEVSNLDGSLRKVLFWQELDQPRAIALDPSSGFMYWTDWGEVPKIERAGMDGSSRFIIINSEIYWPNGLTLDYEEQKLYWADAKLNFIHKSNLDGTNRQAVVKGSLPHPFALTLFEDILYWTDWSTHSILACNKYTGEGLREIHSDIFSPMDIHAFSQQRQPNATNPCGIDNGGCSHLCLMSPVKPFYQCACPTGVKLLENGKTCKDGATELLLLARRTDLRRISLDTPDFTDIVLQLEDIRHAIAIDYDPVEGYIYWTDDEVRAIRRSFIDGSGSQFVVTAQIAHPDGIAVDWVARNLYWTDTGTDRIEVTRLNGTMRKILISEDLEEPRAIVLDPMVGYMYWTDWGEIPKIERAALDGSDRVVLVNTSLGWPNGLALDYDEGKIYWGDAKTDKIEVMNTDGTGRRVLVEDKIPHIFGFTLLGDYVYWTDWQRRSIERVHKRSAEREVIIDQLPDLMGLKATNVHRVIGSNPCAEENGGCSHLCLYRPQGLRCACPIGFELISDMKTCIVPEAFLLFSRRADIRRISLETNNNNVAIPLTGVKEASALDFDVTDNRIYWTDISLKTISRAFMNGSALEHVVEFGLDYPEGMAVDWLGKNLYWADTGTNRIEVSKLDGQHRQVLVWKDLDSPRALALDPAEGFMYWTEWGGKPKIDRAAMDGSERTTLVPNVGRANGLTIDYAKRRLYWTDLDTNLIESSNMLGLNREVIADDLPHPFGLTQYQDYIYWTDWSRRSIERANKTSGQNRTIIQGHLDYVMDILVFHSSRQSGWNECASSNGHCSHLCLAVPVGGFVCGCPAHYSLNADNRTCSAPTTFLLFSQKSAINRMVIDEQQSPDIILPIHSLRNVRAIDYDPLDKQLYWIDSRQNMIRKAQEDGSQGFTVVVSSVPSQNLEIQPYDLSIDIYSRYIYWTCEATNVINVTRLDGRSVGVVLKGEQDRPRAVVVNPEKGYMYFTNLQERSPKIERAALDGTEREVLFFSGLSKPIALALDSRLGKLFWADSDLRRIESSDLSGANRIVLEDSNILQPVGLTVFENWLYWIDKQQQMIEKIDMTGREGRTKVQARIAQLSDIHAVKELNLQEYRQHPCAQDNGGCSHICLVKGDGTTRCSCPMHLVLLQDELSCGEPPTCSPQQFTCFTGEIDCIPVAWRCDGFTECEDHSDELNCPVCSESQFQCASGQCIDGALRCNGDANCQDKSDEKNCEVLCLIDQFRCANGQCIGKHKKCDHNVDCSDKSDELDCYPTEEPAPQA

[3] = target: T1, Myc-tagged LRP6N (LRP6N-Myc), …; experiment: radioligand saturation binding (Scatchard); Kd2, low-affinity site
[4] = target: T2, Myc-tagged Frz8CRD (Frz8CRD-Myc), cysteine-rich domain of Frizzled 8 (UniProt Q61091 28-151); experiment: radioligand saturation binding (Scatchard)
T2 chain: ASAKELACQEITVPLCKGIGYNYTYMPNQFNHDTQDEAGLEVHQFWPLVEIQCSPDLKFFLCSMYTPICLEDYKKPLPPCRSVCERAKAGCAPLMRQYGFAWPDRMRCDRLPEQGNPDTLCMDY

[5] = target: T3, Myc-tagged LRP6N (LRP6N-Myc), extracellular portion of LRP6 (UniProt O75581 20-1370, limits assumed); experiment: IP with anti-Myc antibody, immunoblot with anti-V5 antibody
T3 construct: extracellular domain; Produced in conditioned medium of 293 cells; not shown: Myc tag
T3 sequence (looked up): T1 chain
Experimental: The interaction was assessed by allowing LRP6N-Myc to react with each V5-tagged IGFBP, and performing immunoprecipitation (IP) with an anti-Myc antibody and subsequent immunoblotting (IB) with an anti-V5 antibody (upper panel), and immunoprecipitation (IP) with an anti-V5 antibody and subsequent immunoblotting (IB) with an anti-V5 antibody (lower panel). In the figure, IGFBP-1, IGFBP-2, IGFBP-3, IGFBP-4, IGFBP-5, and IGFBP-6 are represented by BP1, BP2, BP3, BP4, BP5, and BP6, respectively.

Kd [2]: 0.17 nM
Kd [3]: 6.9 nM
Kd [4]: 2.5 nM
B1: ^125I-labelled IGFBP-4 (other)
chain: DEAIHCPPCSEEKLARCRPPVGCEELVREPGCGCCATCALGLGMPCGVYTPRCGSGLRCYPPRGVEKPLHTLMHGQGVCMELAEIEAIQESLQPSDKDEGDHPNNSFSPCSAHDRRCLQKHFAKIRDRSTSGGKMKVNGAPREDARPVPQGSCQSELHRALERLAASQSRTHEDLYIIPIPNCDRNGNFHPKQCHPALDGQRGKCWCVDRKTGVKLPGGLEPKGELDCHQLADSFRE

binding result [5]: no binding
B3: IGFBP-5 (V5-tagged) (other, mouse, UniProt Q07079 20-271, looked up)
chain: LGSFVHCEPCDEKALSMCPPSPLGCELVKEPGCGCCMTCALAEGQSCGVYTERCAQGLRCLPRQDEEKPLHALLHGRGVCLNEKSYGEQTKIERDSREHEEPTTSEMAEETYSPKVFRPKHTRISELKAEAVKKDRRKKLTQSKFVGGAENTAHPRVIPAPEMRQESEQGPCRRHMEASLQEFKASPRMVPRAVYLPNCDRKGFYKRKQCKPSRGRKRGICWCVDKYGMKLPGMEYVDGDFQCHAFDSSNVE
notes: V5-tagged in the IP/western; not shown: V5 tag

More lines, now with the values behind:

Molecule: ^125I-labelled IGFBP-4
Kd [1]: 25 nM

B2: IGFBP-3 (V5-tagged) (other, mouse, UniProt P47878 28-292, looked up)
chain: GAGAVGAGPVVRCEPCDARALSQCAPPPTAPACTELVREPGCGCCLTCALREGDACGVYTERCGTGLRCQPRPAEQYPLRALLNGRGFCANASAAGSLSTYLPSQPAPGNISESEEEHNAGSVESQVVPSTHRVTDSKFHPLHAKMDVIKKGHARDSQRYKVDYESQSTDTQNFSSESKRETEYGPCRREMEDTLNHLKFLNVLSPRGVHIPNCDKKGFYKKKQCRPSKGRKRGFCWCVDKYGQPLPGYDTKGKDDVHCLSVQSQ
notes: as for B3
binding result [5]: no binding
